# Laboratory results: publication PMC12102759 (2025)
# B1: PAIP1 peptide 124-139 (Polyadenylate-binding protein-interacting protein 1), 16-mer library wild type / PABPC1 PABC (PABPC1 PABC domain, residues 544-623) (parent complex)
# chain 1: LMSKLSVNAPEFYPSG
# chain 2: PLTASMLASAPPQEQKQMLGERLFPLIQAMHPTLAGKITGMLLEIDNSELLHMLESPESLRSKVDEAVAVLQAHQAKEAA
# B2: CBL peptide 538-553 (E3 ubiquitin-protein ligase CBL), 16-mer library wild type / YES SH3 (YES1 SH3 domain, residues 90-152) (parent complex)
# chain 1: TLRDLPPPPPPDRPYS
# chain 2: not shown
# Variants of: B1
# Experiment: proteomic peptide phage display deep mutational scan (ProP-PD DMS): M13 P8 16-mer library selected against immobilised GST-tagged bait for four days (rounds), NGS of the eluted pools per day and pseudo-replica; bait immobilised on MaxiSorp plates (10 µg), library pre-cleared on GST, 2 h binding at 4 °C, five washes; one round per day, days 1-4; value from days 2 and 3
row,Variant,screen value
1,chain 1 LMSKLSVNAPEFYPSY,"0.00314 average fractional NGS count over selection days 2 and 3 (reads of this peptide / all reads for the bait, averaged over …"
2,chain 1 LMSKLSVNAPEFYPSN,"0.000134 average fractional NGS count over selection days 2 and 3 (reads of this peptide / all reads for the bait, averaged over …"
3,chain 1 LMSKLSVEAPEFYPSG,"0.000334 average fractional NGS count over selection days 2 and 3 (reads of this peptide / all reads for the bait, averaged over …"
4,chain 1 LMSKWSVNAPEFYPSG,"0.000754 average fractional NGS count over selection days 2 and 3 (reads of this peptide / all reads for the bait, averaged over …"
5,chain 1 LMWKLSVNAPEFYPSG,"0.00081 average fractional NGS count over selection days 2 and 3 (reads of this peptide / all reads for the bait, averaged over …"
6,chain 1 LKSKLSVNAPEFYPSG,"0.000358 average fractional NGS count over selection days 2 and 3 (reads of this peptide / all reads for the bait, averaged over …"

# Variants of: B2
# Experiment: as above
row,Variant,screen value
1,chain 1 S16D,"0.00258 average fractional NGS count over selection days 2 and 3 (reads of this peptide / all reads for the bait, averaged over …"
2,chain 1 S16P,"0.00387 average fractional NGS count over selection days 2 and 3 (reads of this peptide / all reads for the bait, averaged over …"
3,chain 1 S16M,"0.00227 average fractional NGS count over selection days 2 and 3 (reads of this peptide / all reads for the bait, averaged over …"
4,chain 1 S16E,"0.000858 average fractional NGS count over selection days 2 and 3 (reads of this peptide / all reads for the bait, averaged over …"
5,chain 1 S16R,"0.000301 average fractional NGS count over selection days 2 and 3 (reads of this peptide / all reads for the bait, averaged over …"
6,chain 1 S16I,"0.00716 average fractional NGS count over selection days 2 and 3 (reads of this peptide / all reads for the bait, averaged over …"
7,chain 1 S16W,"0.00897 average fractional NGS count over selection days 2 and 3 (reads of this peptide / all reads for the bait, averaged over …"
8,chain 1 S16Y,"0.000405 average fractional NGS count over selection days 2 and 3 (reads of this peptide / all reads for the bait, averaged over …"
9,chain 1 S16K,"0.00025 average fractional NGS count over selection days 2 and 3 (reads of this peptide / all reads for the bait, averaged over …"
10,chain 1 S16F,"0.00399 average fractional NGS count over selection days 2 and 3 (reads of this peptide / all reads for the bait, averaged over …"
11,chain 1 S16V,"0.00134 average fractional NGS count over selection days 2 and 3 (reads of this peptide / all reads for the bait, averaged over …"
12,chain 1 S16T,"0.000743 average fractional NGS count over selection days 2 and 3 (reads of this peptide / all reads for the bait, averaged over …"
13,chain 1 S16G,"0.000561 average fractional NGS count over selection days 2 and 3 (reads of this peptide / all reads for the bait, averaged over …"
14,chain 1 L2I,"0.000452 average fractional NGS count over selection days 2 and 3 (reads of this peptide / all reads for the bait, averaged over …"
15,chain 1 L2D,"0.000976 average fractional NGS count over selection days 2 and 3 (reads of this peptide / all reads for the bait, averaged over …"
16,chain 1 L2N,"0.00027 average fractional NGS count over selection days 2 and 3 (reads of this peptide / all reads for the bait, averaged over …"
17,chain 1 L2W,"0.00229 average fractional NGS count over selection days 2 and 3 (reads of this peptide / all reads for the bait, averaged over …"
18,chain 1 L2V,"0.00022 average fractional NGS count over selection days 2 and 3 (reads of this peptide / all reads for the bait, averaged over …"
19,chain 1 L2P,"0.00136 average fractional NGS count over selection days 2 and 3 (reads of this peptide / all reads for the bait, averaged over …"
20,chain 1 L2R,"0.000311 average fractional NGS count over selection days 2 and 3 (reads of this peptide / all reads for the bait, averaged over …"
21,chain 1 L2Y,"0.00467 average fractional NGS count over selection days 2 and 3 (reads of this peptide / all reads for the bait, averaged over …"
22,chain 1 L2T,"0.00177 average fractional NGS count over selection days 2 and 3 (reads of this peptide / all reads for the bait, averaged over …"
23,chain 1 L2E,"0.00558 average fractional NGS count over selection days 2 and 3 (reads of this peptide / all reads for the bait, averaged over …"

row,Variant,screen value
1,chain 1 L2Q,"0.00095 average fractional NGS count over selection days 2 and 3 (reads of this peptide / all reads for the bait, averaged over …"
2,chain 1 L2G,"0.000674 average fractional NGS count over selection days 2 and 3 (reads of this peptide / all reads for the bait, averaged over …"
3,chain 1 L2F,"0.00251 average fractional NGS count over selection days 2 and 3 (reads of this peptide / all reads for the bait, averaged over …"
4,chain 1 L2K,"0.0014 average fractional NGS count over selection days 2 and 3 (reads of this peptide / all reads for the bait, averaged over …"
5,chain 1 R3H,"0.000385 average fractional NGS count over selection days 2 and 3 (reads of this peptide / all reads for the bait, averaged over …"
6,chain 1 R3N,"0.000239 average fractional NGS count over selection days 2 and 3 (reads of this peptide / all reads for the bait, averaged over …"
7,chain 1 R3E,"0.000121 average fractional NGS count over selection days 2 and 3 (reads of this peptide / all reads for the bait, averaged over …"
8,chain 1 R3S,"0.000276 average fractional NGS count over selection days 2 and 3 (reads of this peptide / all reads for the bait, averaged over …"
9,chain 1 R3P,"8.03e-05 average fractional NGS count over selection days 2 and 3 (reads of this peptide / all reads for the bait, averaged over …"
10,chain 1 R3Y,"0.000386 average fractional NGS count over selection days 2 and 3 (reads of this peptide / all reads for the bait, averaged over …"
11,chain 1 R3G,"0.00132 average fractional NGS count over selection days 2 and 3 (reads of this peptide / all reads for the bait, averaged over …"
12,chain 1 R3D,"8.49e-05 average fractional NGS count over selection days 2 and 3 (reads of this peptide / all reads for the bait, averaged over …"
13,chain 1 R3M,"0.000204 average fractional NGS count over selection days 2 and 3 (reads of this peptide / all reads for the bait, averaged over …"
14,chain 1 R3A,"0.00047 average fractional NGS count over selection days 2 and 3 (reads of this peptide / all reads for the bait, averaged over …"
15,chain 1 R3V,"0.000502 average fractional NGS count over selection days 2 and 3 (reads of this peptide / all reads for the bait, averaged over …"
16,chain 1 R3L,"7.89e-05 average fractional NGS count over selection days 2 and 3 (reads of this peptide / all reads for the bait, averaged over …"
17,chain 1 R3W,"0.00019 average fractional NGS count over selection days 2 and 3 (reads of this peptide / all reads for the bait, averaged over …"
18,chain 1 P6S,"0.000101 average fractional NGS count over selection days 2 and 3 (reads of this peptide / all reads for the bait, averaged over …"
19,chain 1 P6H,"0.000126 average fractional NGS count over selection days 2 and 3 (reads of this peptide / all reads for the bait, averaged over …"
20,chain 1 P6M,"0.000156 average fractional NGS count over selection days 2 and 3 (reads of this peptide / all reads for the bait, averaged over …"
21,chain 1 Y15F,"0.00101 average fractional NGS count over selection days 2 and 3 (reads of this peptide / all reads for the bait, averaged over …"
22,chain 1 Y15L,"0.00132 average fractional NGS count over selection days 2 and 3 (reads of this peptide / all reads for the bait, averaged over …"
23,chain 1 Y15R,"0.000143 average fractional NGS count over selection days 2 and 3 (reads of this peptide / all reads for the bait, averaged over …"

row,Variant,screen value
1,chain 1 Y15E,"9.17e-05 average fractional NGS count over selection days 2 and 3 (reads of this peptide / all reads for the bait, averaged over …"
2,chain 1 Y15S,"0.000415 average fractional NGS count over selection days 2 and 3 (reads of this peptide / all reads for the bait, averaged over …"
3,chain 1 Y15I,"0.000521 average fractional NGS count over selection days 2 and 3 (reads of this peptide / all reads for the bait, averaged over …"
4,chain 1 Y15V,"0.00865 average fractional NGS count over selection days 2 and 3 (reads of this peptide / all reads for the bait, averaged over …"
5,chain 1 Y15G,"0.000388 average fractional NGS count over selection days 2 and 3 (reads of this peptide / all reads for the bait, averaged over …"
6,chain 1 Y15K,"0.000227 average fractional NGS count over selection days 2 and 3 (reads of this peptide / all reads for the bait, averaged over …"
7,chain 1 Y15A,"0.00482 average fractional NGS count over selection days 2 and 3 (reads of this peptide / all reads for the bait, averaged over …"
8,chain 1 Y15H,"0.0004 average fractional NGS count over selection days 2 and 3 (reads of this peptide / all reads for the bait, averaged over …"
9,chain 1 Y15W,"0.000273 average fractional NGS count over selection days 2 and 3 (reads of this peptide / all reads for the bait, averaged over …"
10,chain 1 P7V,"0.00339 average fractional NGS count over selection days 2 and 3 (reads of this peptide / all reads for the bait, averaged over …"
11,chain 1 P7Y,"0.000234 average fractional NGS count over selection days 2 and 3 (reads of this peptide / all reads for the bait, averaged over …"
12,chain 1 P7K,"0.000378 average fractional NGS count over selection days 2 and 3 (reads of this peptide / all reads for the bait, averaged over …"
13,chain 1 P7L,"0.000549 average fractional NGS count over selection days 2 and 3 (reads of this peptide / all reads for the bait, averaged over …"
14,chain 1 P7I,"0.00214 average fractional NGS count over selection days 2 and 3 (reads of this peptide / all reads for the bait, averaged over …"
15,chain 1 P7E,"0.00022 average fractional NGS count over selection days 2 and 3 (reads of this peptide / all reads for the bait, averaged over …"
16,chain 1 P7S,"0.00158 average fractional NGS count over selection days 2 and 3 (reads of this peptide / all reads for the bait, averaged over …"
17,chain 1 P7H,"7.35e-05 average fractional NGS count over selection days 2 and 3 (reads of this peptide / all reads for the bait, averaged over …"
18,chain 1 P7Q,"0.000151 average fractional NGS count over selection days 2 and 3 (reads of this peptide / all reads for the bait, averaged over …"
19,chain 1 P7G,"0.000231 average fractional NGS count over selection days 2 and 3 (reads of this peptide / all reads for the bait, averaged over …"
20,chain 1 P7N,"0.000153 average fractional NGS count over selection days 2 and 3 (reads of this peptide / all reads for the bait, averaged over …"
21,chain 1 P7F,"0.000149 average fractional NGS count over selection days 2 and 3 (reads of this peptide / all reads for the bait, averaged over …"
22,chain 1 P7A,"0.00162 average fractional NGS count over selection days 2 and 3 (reads of this peptide / all reads for the bait, averaged over …"
